Reference: paper PMC10754689

Experiments:
Test in all cases: TPM
[1] = tested on: φC31 Int wt (Streptomyces coelicolor phage φC31); conditions: TPM (LI Int): 20 mM Tris-HCl pH 8.0, 150 mM KCl, 5% glycerol, 5 mM MgCl2, 5 mM DTT, 2 mg/mL BSA, 22°C, 30 min, φC31 Int at 20 nM, its buffer not in the …
[2] = tested on: φC31 Int ΔCC (Streptomyces coelicolor phage φC31); conditions: TPM (LI Int): 20 mM Tris-HCl pH 8.0, 150 mM KCl, 5% glycerol, 5 mM MgCl2, 5 mM DTT, 2 mg/mL BSA, 22°C, 30 min, φC31 Int at 20 nM, its buffer not in the …
[3] = tested on: LI Int ΔCC (Listeria innocua prophage (phage LI)); conditions: 200 or 400 nM Int, 5 mM Mg2+, TPM (LI Int): 20 mM Tris-HCl pH 8.0, 150 mM KCl, 5% glycerol, 5 mM MgCl2, 5 mM DTT, 2 mg/mL BSA, 22°C, 30 min, φC31 Int at 20 nM, its buffer not in the …
[4] = tested on: LI Int K362A (Listeria innocua prophage (phage LI)); conditions: 200 or 400 nM Int, 5 mM Mg2+, TPM (LI Int): 20 mM Tris-HCl pH 8.0, 150 mM KCl, 5% glycerol, 5 mM MgCl2, 5 mM DTT, 2 mg/mL BSA, 22°C, 30 min, φC31 Int at 20 nM, its buffer not in the …
[5] = tested on: LI Int S10A (Listeria innocua prophage (phage LI)); conditions: 5 mM Mg2+, TPM (LI Int): 20 mM Tris-HCl pH 8.0, 150 mM KCl, 5% glycerol, 5 mM MgCl2, 5 mM DTT, 2 mg/mL BSA, 22°C, 30 min, φC31 Int at 20 nM, its buffer not in the …
[6] = tested on: LI Int wt (Listeria innocua prophage (phage LI)); conditions: 5 mM Mg2+, TPM (LI Int): 20 mM Tris-HCl pH 8.0, 150 mM KCl, 5% glycerol, 5 mM MgCl2, 5 mM DTT, 2 mg/mL BSA, 22°C, 30 min, φC31 Int at 20 nM, its buffer not in the …

φC31 attB-attP head-to-tail 1303 bp
binding signal ([1]; 20 nM Int): 80.4 % DNA bound | binding signal ([2]; 20 nM Int): 30.6 % DNA bound

LI attL-attR head-to-tail 1303 bp
binding signal ([3]; no RDF): 16.1 % DNA bound | binding signal ([4]; no RDF): 20.5 % DNA bound | binding signal ([5]; 200 nM Int, no RDF): 51.7 % DNA bound | binding signal ([6]; 200 nM Int, no RDF): 48.6 % DNA bound

LI attB-attP head-to-tail 1303 bp
binding signal [3]: 17.8 % DNA bound | binding signal [4]: 54.9 % DNA bound | binding signal ([5]; 100 nM Int): 76.4 % DNA bound | binding signal ([6]; 100 nM Int): 81.1 % DNA bound

φC31 attL-attR head-to-tail 1303 bp
binding signal [1]: 19.9 % DNA bound | binding signal [2]: 21 % DNA bound
